The results in this text go back to article PMC3962013 (Cell, 2014).

The target of assay [1] is T1, C. elegans SYG-2 ectodomain (C. elegans, UniProt Q9U3P2 20-1084).
T1 sequence (looked up): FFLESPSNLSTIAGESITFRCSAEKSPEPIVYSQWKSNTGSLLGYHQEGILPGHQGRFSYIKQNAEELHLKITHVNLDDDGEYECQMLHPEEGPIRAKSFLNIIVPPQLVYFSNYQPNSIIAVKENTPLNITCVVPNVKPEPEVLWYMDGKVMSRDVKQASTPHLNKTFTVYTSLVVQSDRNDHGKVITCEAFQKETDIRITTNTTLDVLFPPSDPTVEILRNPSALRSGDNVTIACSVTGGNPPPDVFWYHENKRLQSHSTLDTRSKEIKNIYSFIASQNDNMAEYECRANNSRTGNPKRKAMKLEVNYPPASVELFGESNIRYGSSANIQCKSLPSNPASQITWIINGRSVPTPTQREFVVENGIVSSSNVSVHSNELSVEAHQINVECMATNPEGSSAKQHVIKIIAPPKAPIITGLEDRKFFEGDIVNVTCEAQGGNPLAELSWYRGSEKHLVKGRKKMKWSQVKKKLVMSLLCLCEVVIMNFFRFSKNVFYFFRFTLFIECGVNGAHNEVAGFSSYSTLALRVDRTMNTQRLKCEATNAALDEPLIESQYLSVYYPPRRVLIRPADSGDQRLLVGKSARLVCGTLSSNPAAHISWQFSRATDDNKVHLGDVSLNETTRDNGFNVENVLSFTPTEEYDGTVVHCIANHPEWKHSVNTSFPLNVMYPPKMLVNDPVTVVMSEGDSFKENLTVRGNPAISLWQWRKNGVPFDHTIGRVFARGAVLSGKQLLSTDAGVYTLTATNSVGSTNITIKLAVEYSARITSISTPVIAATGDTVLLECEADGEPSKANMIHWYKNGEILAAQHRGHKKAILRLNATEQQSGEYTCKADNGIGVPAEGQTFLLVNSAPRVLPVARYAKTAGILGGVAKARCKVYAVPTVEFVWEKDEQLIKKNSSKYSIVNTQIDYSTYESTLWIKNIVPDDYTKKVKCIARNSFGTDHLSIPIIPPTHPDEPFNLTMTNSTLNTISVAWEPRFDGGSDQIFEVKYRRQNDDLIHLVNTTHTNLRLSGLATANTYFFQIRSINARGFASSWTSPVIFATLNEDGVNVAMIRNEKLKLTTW
The experiment in a line: ITC + SPR.

Assay [2] has as its target wild type SYG-2 (SPR series with mutants, construct not stated) (C. elegans). In words: SPR.

B1: C. elegans SYG-1 ectodomain (domain or fragment, UniProt B1Q236 19-551, looked up)
chain: QQLQQRIVEAPKDTLAAVGETAILTCRVEHQQGPVQWMKDDFGLGTDRDKPLPGNKRYRMVGSAANGEYNLEISNVTLFDDDDFACQISESDHAKAVVSSKAKLTVLVRPTPPKIVKSHHSLKAIAGDPITQSCLSRKGKPPPTIGWAIASDEHGKHIVSWLGESRSKFGGIHAKPEISQETVIAHVNETTQVEEGGNNSREDSSIYSIMSNLSFIPRPEDDHKYLICISQHMTFPNKIEVDSVKLSLRYAPQINLTVASKLPLRENGSALLACNVNAKPLDNVKISWYKGNQKLRETGDTLTFETLKMEDHNRDIFCEATNEIGTTRGSIKLNVAFGARIMSTSQDKEVNEGDNAFFHCATLANPAPAIFWTRGDSDEIIGHGENLTLENVRTWQQGNYNCTATVEGFRKQILSHYLHIRGPPTVSMKDEVSASLDEATEIICEISGRPKTNNVRWTVNGKEINFNNGRITVHQYPKPYGKESILKIKDLKEEDFGVYNCSANNGLGFDNRGTLLKKRNILDWIVITAKFDR
For orientation: Kd means the free concentration of one partner at which half of the binding sites on the other are occupied at equilibrium, for simple one-to-one binding. Regarding B1, the Kd in assay [1] is ~600 nM.

B2: SYG-1 Q54 mutant (domain or fragment)
chain: QQLQQRIVEAPKDTLAAVGETAILTCRVEHQQGPVAWMKDDFGLGTDRDKPLPGNKRYRMVGSAANGEYNLEISNVTLFDDDDFACQISESDHAKAVVSSKAKLTVLVRPTPPKIVKSHHSLKAIAGDPITQSCLSRKGKPPPTIGWAIASDEHGKHIVSWLGESRSKFGGIHAKPEISQETVIAHVNETTQVEEGGNNSREDSSIYSIMSNLSFIPRPEDDHKYLICISQHMTFPNKIEVDSVKLSLRYAPQINLTVASKLPLRENGSALLACNVNAKPLDNVKISWYKGNQKLRETGDTLTFETLKMEDHNRDIFCEATNEIGTTRGSIKLNVAFGARIMSTSQDKEVNEGDNAFFHCATLANPAPAIFWTRGDSDEIIGHGENLTLENVRTWQQGNYNCTATVEGFRKQILSHYLHIRGPPTVSMKDEVSASLDEATEIICEISGRPKTNNVRWTVNGKEINFNNGRITVHQYPKPYGKESILKIKDLKEEDFGVYNCSANNGLGFDNRGTLLKKRNILDWIVITAKFDR
On to B2, for which the “fold weaker affinity than wild-type SYG-1” value in assay [2] amounted to 7 fold.
